Four molecules from patent US20090087478A1 (PROGENICS PHARMACEUTICALS NEVADA, published 2009) can be followed below.

The target of assay [1] is T1, ToxA:2459-2710 (C-terminal eleven repeats of the toxin A CWB domain) (Clostridium difficile, UniProt P16154 2459-2710).
In assay [2] the target is T1, ToxA:2459-2710 (C-terminal eleven …). The experiment in a line: SPR, apparent KD. A general note: In SPR one partner is held on a chip, and binding of the other changes the refractive index at the surface.
In assay [3] the target is T2, ToxB:1807-2366 (CWB domain of C. difficile toxin B, expressed in E. coli) (Clostridium difficile, UniProt P18177 1807-2366).
T2 construct: range 1807-2366
The experiment in a line: SPR, toxin domain immobilised, apparent Kd.

Read-outs that look alike come from different tables or passages of the source.

B1: Antibody 3358 (or 543), murine monoclonal anti-toxin A antibody (antibody, V domains shown)
VH: QVQLQQPGAELVKPGASVRLSCKAGGYTFTSYWLHWVKQRPGQGLEWIGMIHPNSGSYDYSETFRTKATLTVDKSSDTAYMQLTSLTSEDSAVYYCARGGSNYDIFAYWGQGTTLTVSS
VL: NIVMTQSPKSMSMSVGERVTFNCRASENVGTYVFWYQQKPEQSPRLLIYGASNRYTGVPDRFTGSGSATDFTLTISGVQAEDLADYHCGQSYRHLTFGGGTKLEIK
On to B1, for which the Kd was 0.7 nM in assay [1] and below 30 nM in assay [2].

B2: rPBA-3, chimeric recombinant form of anti-toxin A monoclonal antibody PBA-3 (wildtype, plasmids BD12584 heavy and BD12585 light) (antibody, V domains shown)
VH: QVQLQQSGPELVKPGASVRISCKASGFTFTSYHVNWVKQRPGQGLEWIGWIYPGNVNTEYNEKFKGKATLTADKSSSTAYMQLSSLTSEDSAVYFCASHEYYGSDWYFDVWGAGTTVTVSS
VL: DAVMTQTPLSLPVSLGDQASISCRSSQSLENRNGNTYLNWYLQKPGQSPQLLIYRVSNRFSGVLDRFSGSGSGTDFTLKISRVEAEDLGVYFCLQVTHVPYTFGGGTKLEIK
For B2, the Kd in assay [1] is 60 nM.

B3: Antibody F87, murine monoclonal anti-toxin B antibody (antibody, V domains shown)
VH: QVQLQQPGTELVKPGASVKLSCKASGYTFTNYWMHWVKQRPGQGLEWVGNINPSNGGTNYNEKFKSKATLTVDKSSSTAYMQLSSLTSEDSAFYYCARGRGPPYYSDYWGQGSTLTVSS
VL: NIQMTQSPASLSASVGETVTITCRASGNIHNYLAWYQQKQGKSPQLLVYNAKTLADGVPSRFSGSGSGTQYSLKINSLQPEDFGSYYCQHFWSTPFTFGSGTKLEIK
With B3, the Kd in assay [3] was 0.05 nM.

B4: Antibody 227 (or 3359), murine monoclonal anti-toxin A antibody (antibody, V domains shown)
VH: EVQLVESGGGLMKPGGSLKLSCAASGFAFGSYDMSWVRQTPEKRLEWVAYISSGGGITFYPDSVRGRFTISRDNAKNSLYMEMSSLRSEDTAMYYCARWDWDLFAYWGQGTLVTVSA
VL: DIKMTQSPSSMYTSLGERVTITCKASQDINSCLSWFQQKPGKSPKALIFRANILVDGVPSRFSGSGSGQDYSLTISSLEYEDLGIYYCLQYDEFPWTFGGGTRLEIK
Take B4: in assay [1], the Kd was determined as 12 nM.
